These results are taken from patent US20240190962A1 (IMMUNOWAKE, published 2024).

The target of test [1] is T1, human IL-2 receptor (IL-2Rα, IL-2Rβ, IL-2Rγ) (human, UniProt P01589 22-272; P14784 27-551; P31785 23-369).
T1 sequence (looked up) 1: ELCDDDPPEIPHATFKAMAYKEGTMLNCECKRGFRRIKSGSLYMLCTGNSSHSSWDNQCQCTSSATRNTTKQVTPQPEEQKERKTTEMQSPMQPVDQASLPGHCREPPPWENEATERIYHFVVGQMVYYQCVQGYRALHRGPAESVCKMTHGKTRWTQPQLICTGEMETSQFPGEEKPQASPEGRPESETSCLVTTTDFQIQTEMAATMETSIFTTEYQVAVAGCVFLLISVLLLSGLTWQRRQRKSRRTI
T1 sequence (looked up) 2: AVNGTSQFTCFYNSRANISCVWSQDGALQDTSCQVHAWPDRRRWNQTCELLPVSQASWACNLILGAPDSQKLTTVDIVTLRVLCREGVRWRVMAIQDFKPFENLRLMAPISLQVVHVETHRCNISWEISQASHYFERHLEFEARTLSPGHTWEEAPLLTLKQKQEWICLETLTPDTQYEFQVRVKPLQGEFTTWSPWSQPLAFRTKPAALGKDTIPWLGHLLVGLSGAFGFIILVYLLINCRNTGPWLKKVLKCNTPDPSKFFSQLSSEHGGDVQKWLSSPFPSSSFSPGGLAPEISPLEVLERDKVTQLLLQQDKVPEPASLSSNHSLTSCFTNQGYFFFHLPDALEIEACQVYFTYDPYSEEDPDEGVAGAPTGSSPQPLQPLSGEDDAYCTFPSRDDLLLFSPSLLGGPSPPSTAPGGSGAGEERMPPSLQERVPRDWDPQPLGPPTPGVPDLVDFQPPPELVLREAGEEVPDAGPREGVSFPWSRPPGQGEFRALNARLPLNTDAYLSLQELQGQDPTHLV
T1 sequence (looked up) 3: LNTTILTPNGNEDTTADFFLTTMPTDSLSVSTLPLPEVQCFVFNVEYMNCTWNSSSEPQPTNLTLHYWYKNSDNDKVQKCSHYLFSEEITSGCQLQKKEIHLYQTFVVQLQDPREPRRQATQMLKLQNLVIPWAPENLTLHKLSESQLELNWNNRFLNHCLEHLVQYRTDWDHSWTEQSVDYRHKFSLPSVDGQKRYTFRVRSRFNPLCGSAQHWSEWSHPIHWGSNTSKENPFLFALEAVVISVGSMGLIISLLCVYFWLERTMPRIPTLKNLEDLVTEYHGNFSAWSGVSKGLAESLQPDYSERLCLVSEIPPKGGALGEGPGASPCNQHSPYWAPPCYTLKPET
As to the kind of experiment: cell-based or functional assay.

For the next test, the target named is T2, CD4 on CD4+ T cells (UniProt P01730 26-458, limits assumed).
T2 construct: whole, on cells
As to the kind of experiment: FACS.

The target in test [2] is human IL-12 receptor complex (IL-12Rβ1, IL-12Rβ2) (human, UniProt P42701 24-662; Q99665 24-862). As to the kind of experiment: cell-based or functional assay.
Chain of human IL-12 receptor complex (IL-12Rβ1, IL-12Rβ2) (Q99665 24-862, chain 2 of 2, other chains not shown): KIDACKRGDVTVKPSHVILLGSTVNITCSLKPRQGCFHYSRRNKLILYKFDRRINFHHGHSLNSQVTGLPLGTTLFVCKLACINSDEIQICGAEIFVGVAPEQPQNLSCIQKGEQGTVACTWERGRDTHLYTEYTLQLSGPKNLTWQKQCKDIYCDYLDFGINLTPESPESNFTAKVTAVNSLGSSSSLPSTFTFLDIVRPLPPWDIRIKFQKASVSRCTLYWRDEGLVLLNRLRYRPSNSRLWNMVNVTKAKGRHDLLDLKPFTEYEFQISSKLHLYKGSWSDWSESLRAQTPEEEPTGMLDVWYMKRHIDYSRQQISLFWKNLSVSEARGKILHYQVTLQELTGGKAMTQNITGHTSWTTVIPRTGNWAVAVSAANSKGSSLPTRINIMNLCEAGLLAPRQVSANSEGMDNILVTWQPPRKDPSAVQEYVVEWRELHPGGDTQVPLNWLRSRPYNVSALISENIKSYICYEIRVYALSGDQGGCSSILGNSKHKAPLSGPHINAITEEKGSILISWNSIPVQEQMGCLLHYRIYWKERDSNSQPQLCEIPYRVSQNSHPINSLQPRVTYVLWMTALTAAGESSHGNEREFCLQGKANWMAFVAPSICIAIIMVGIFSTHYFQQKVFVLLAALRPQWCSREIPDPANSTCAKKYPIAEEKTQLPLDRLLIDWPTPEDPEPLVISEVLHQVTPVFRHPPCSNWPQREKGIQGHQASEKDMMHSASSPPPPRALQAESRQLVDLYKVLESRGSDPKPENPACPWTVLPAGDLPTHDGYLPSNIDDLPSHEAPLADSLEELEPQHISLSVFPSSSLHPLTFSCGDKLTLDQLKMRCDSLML
Test [3] deals with T1, human IL-2 receptor (IL-2Rα, IL-2Rβ, …). As to the kind of experiment: cell-based or functional assay. The source holds these as a separate data set.

Like-named read-outs stand apart in the source and are kept apart here.

B1: anti-PD-1 antibody nivolumab (Opdivo) (antibody, human IgG4 S228P, kappa, V domains shown)
VH: QVQLVESGGGVVQPGRSLRLDCKASGITFSNSGMHWVRQAPGKGLEWVAVIWYDGSKRYYADSVKGRFTISRDNSKNTLFLQMNSLRAEDTAVYYCATNDDYWGQGTLVTVSS
VL: EIVLTQSPATLSLSPGERATLSCRASQSVSSYLAWYQQKPGQAPRLLIYDASNRATGIPARFSGSGSGTDFTLTISSLEPEDFAVYYCQQSSNWPRTFGQGTKVEIKR
On to B1, for which, in test [1], the “Percent IL-2 signal transduction (HEK-IL-2 reporter assay)” value is 0% and the “Percent IL-2 signal transduction (HEK-PD-1-IL-2 reporter assay)” value turned out to be 0%.

B2: Fab-IL-12(WT)-Fc-CD8 Ab (other)
light: DIQMTQTTSSLSASLGDRVTISCRASQDINNYLNWYQQKSDGTIKLLIYYTSRSYSGVPSRFSGSGSGTDYSLTISNRRQEDIATYFCQQGKTLPWTFGGGTKLEIKRTVAAPSVFIFPPSDEQLKSGTASVVCLLNNFYPREAKVQWKVDNALQSGNSQESVTEQDSKDSTYSLSSTLTLSKADYEKHKVYACEVTHQGLSSPVTKSFNRGEC
heavy 1: EVQLQQSGPELVKPGASVKMSCKASGYTFTDYYMKWVKQSHGKSLEWIGHINPNNDDTFYTQKFKGRATLTVDKSSSTAYMQLNSLTSEDSAVYYCVRDDYDGGWFAYWGQGTLVTVSSASTKGPSVFPLAPSSKSTSGGTAALGCLVKDYFPEPVTVSWNSGALTSGVHTFPAVLQSSGLYSLSSVVTVPSSSLGTQTYICNVNHKPSNTKVDKKVEPKSCDKTHTCPPCPAPEKKGGPSVFLFPPKPKDTLMISRTPEVTCVVVDVSHEDPEVKFNWYVDGVEVHNAKTKPREEQYNSTYRVVSVLTVLHQDWLNGKEYKCKVSNKALPAPIEKTISKAKGQPREPQVYVLPPSREEMTKNQVSLLCLVKGFYPSDIAVEWESNGQPENRYMTWPPVLDSDGSFFLYSKLTVDKSRWQQGNVFSCSVMHEALHNHYTQKSLSLSPGK
heavy 2: EVQLQQSGPELVKPGASVKMSCKASGYTFTDYYMKWVKQSHGKSLEWIGHINPNNDDTFYTQKFKGRATLTVDKSSSTAYMQLNSLTSEDSAVYYCVRDDYDGGWFAYWGQGTLVTVSSASTKGPSVFPLAPSSKSTSGGTAALGCLVKDYFPEPVTVSWNSGALTSGVHTFPAVLQSSGLYSLSSVVTVPSSSLGTQTYICNVNHKPSNTKVDKKVEPKSCDKPGSGIWELKKDVYVVELDWYPDAPGEMVVLTCDTPEEDGITWTLDQSSEVLGSGKTLTIQVKEFGDAGQYTCHKGGEVLSHSLLLLHKKEDGIWSTDILKDQKEPKNKTFLRCEAKNYSGRFTCWWLTTISTDLTFSVKSSRGSSDPQGVTCGAATLSAERVRGDNKEYEYSVECQEDSACPAAEESLPIEVMVDAVHKLKYENYTSSFFIRDIIKPDPPKNLQLKPLKNSRQVEVSWEYPDTWSTPHSYFSLTFCVQVQGKSKREKKDRVFTDKTSATVICRKNASISVRAQDRYYSSSWSEWASVPCSGGGGSGGGGSGGGGSGGGGSGRNLPVATPDPGMFPCLHHSQNLLRAVSNMLQKARQTLEFYPCTSEEIDHEDITKDKTSTVEACLPLELTKNESCLNSRETSFITNGSCLASRKTSFMMALCLSSIYEDLKMYQVEFKTMNAKLLMDPKRQIFLDQNMLAVIDELMQALNFNSETVPQKSSLEEPDFYKTKIKLCILLHAFRIRAVTIDRVMSYLNASDKTHTCPPCPAPEDEGGPSVFLFPPKPKDTLMISRTPEVTCVVVDVSHEDPEVKFNWYVDGVEVHNAKTKPREEQYNSTYRVVSVLTVLHQDWLNGKEYKCKVSNKALPAPIEKTISKAKGQPREPQVYVYPPSREEMTKNQVSLTCLVKGFYPSDIAVEWESNGQPENNYKTTPPVLDEDGSFALVSKLTVDKSRWQQGNVFSCSVMHEALHNHYTQKSLSLSPGK
notes: copies: 2 + 1 + 1
As for B2, in the test with CD4 on CD4+ T cells, the binding result is listed as “no binding”. In test [2], the “IL-12 biological activity (IFN-γ release), CD4+ T cells” value worked out at 21% and the “IL-12 biological activity (IFN-γ release), CD8+ T cells” value was found to be 56%.

B3: Fab-IL-12(E59A)-Fc-CD8 Ab (other)
light: DIQMTQTTSSLSASLGDRVTISCRASQDINNYLNWYQQKSDGTIKLLIYYTSRSYSGVPSRFSGSGSGTDYSLTISNRRQEDIATYFCQQGKTLPWTFGGGTKLEIKRTVAAPSVFIFPPSDEQLKSGTASVVCLLNNFYPREAKVQWKVDNALQSGNSQESVTEQDSKDSTYSLSSTLTLSKADYEKHKVYACEVTHQGLSSPVTKSFNRGEC
heavy 1: EVQLQQSGPELVKPGASVKMSCKASGYTFTDYYMKWVKQSHGKSLEWIGHINPNNDDTFYTQKFKGRATLTVDKSSSTAYMQLNSLTSEDSAVYYCVRDDYDGGWFAYWGQGTLVTVSSASTKGPSVFPLAPSSKSTSGGTAALGCLVKDYFPEPVTVSWNSGALTSGVHTFPAVLQSSGLYSLSSVVTVPSSSLGTQTYICNVNHKPSNTKVDKKVEPKSCDKTHTCPPCPAPEKKGGPSVFLFPPKPKDTLMISRTPEVTCVVVDVSHEDPEVKFNWYVDGVEVHNAKTKPREEQYNSTYRVVSVLTVLHQDWLNGKEYKCKVSNKALPAPIEKTISKAKGQPREPQVYVLPPSREEMTKNQVSLLCLVKGFYPSDIAVEWESNGQPENRYMTWPPVLDSDGSFFLYSKLTVDKSRWQQGNVFSCSVMHEALHNHYTQKSLSLSPGK
heavy 2: EVQLQQSGPELVKPGASVKMSCKASGYTFTDYYMKWVKQSHGKSLEWIGHINPNNDDTFYTQKFKGRATLTVDKSSSTAYMQLNSLTSEDSAVYYCVRDDYDGGWFAYWGQGTLVTVSSASTKGPSVFPLAPSSKSTSGGTAALGCLVKDYFPEPVTVSWNSGALTSGVHTFPAVLQSSGLYSLSSVVTVPSSSLGTQTYICNVNHKPSNTKVDKKVEPKSCDKPGSGIWELKKDVYVVELDWYPDAPGEMVVLTCDTPEEDGITWTLDQSSEVLGSGKTLTIQVKAFGDAGQYTCHKGGEVLSHSLLLLHKKEDGIWSTDILKDQKEPKNKTFLRCEAKNYSGRFTCWWLTTISTDLTFSVKSSRGSSDPQGVTCGAATLSAERVRGDNKEYEYSVECQEDSACPAAEESLPIEVMVDAVHKLKYENYTSSFFIRDIIKPDPPKNLQLKPLKNSRQVEVSWEYPDTWSTPHSYFSLTFCVQVQGKSKREKKDRVFTDKTSATVICRKNASISVRAQDRYYSSSWSEWASVPCSGGGGSGGGGSGGGGSGGGGSGRNLPVATPDPGMFPCLHHSQNLLRAVSNMLQKARQTLEFYPCTSEEIDHEDITKDKTSTVEACLPLELTKNESCLNSRETSFITNGSCLASRKTSFMMALCLSSIYEDLKMYQVEFKTMNAKLLMDPKRQIFLDQNMLAVIDELMQALNFNSETVPQKSSLEEPDFYKTKIKLCILLHAFRIRAVTIDRVMSYLNASDKTHTCPPCPAPEDEGGPSVFLFPPKPKDTLMISRTPEVTCVVVDVSHEDPEVKFNWYVDGVEVHNAKTKPREEQYNSTYRVVSVLTVLHQDWLNGKEYKCKVSNKALPAPIEKTISKAKGQPREPQVYVYPPSREEMTKNQVSLTCLVKGFYPSDIAVEWESNGQPENNYKTTPPVLDEDGSFALVSKLTVDKSRWQQGNVFSCSVMHEALHNHYTQKSLSLSPGK
notes: copies: 2 + 1 + 1
In the case of B3, in the test with CD4 on CD4+ T cells, the binding result is recorded as “no binding”. Also, in test [2], the “IL-12 biological activity (IFN-γ release), CD4+ T cells” value was 2.1% and the “IL-12 biological activity (IFN-γ release), CD8+ T cells” value turned out to be 24.2%.

B4: Fab-IL-2 mutant-Fc-CD3 Ab (other)
light: EIVMTQSPGTLSLSPGESATLSCSASLSVSFMHWFQQKPGHAPRLLIYRTSNLASGVPDRFSGSGSGTDFTLTISRLEPEDFAVYYCQQRSSDPPTFGQGTRLEIKRTVAAPSVFIFPPSDEQLKSGTASVVCLLNNFYPREAKVQWKVDNALQSGNSQESVTEQDSKDSTYSLSSTLTLSKADYEKHKVYACEVTHQGLSSPVTKSFNRGEC
heavy 1: EVQLVESGGGLVQPGRSLRLSCTASGFTFSYFWMNWVRQAPGKGLEWVGEIRLRSDNYATHYAESVKGRFTISRDDSKSIAYLQMNSLKTEDTALYYCTRDWEFTYWGQGTTVTVSSASTKGPSVFPLAPSSKSTSGGTAALGCLVKDYFPEPVTVSWNSGALTSGVHTFPAVLQSSGLYSLSSVVTVPSSSLGTQTYICNVNHKPSNTKVDKKVEPKSCDKTHTCPPCPAPEKKGGPSVFLFPPKPKDTLMISRTPEVTCVVVDVSHEDPEVKFNWYVDGVEVHNAKTKPREEQYNSTYRVVSVLTVLHQDWLNGKEYKCKVSNKALPAPIEKTISKAKGQPREPQVYVLPPSREEMTKNQVSLLCLVKGFYPSDIAVEWESNGQPENRYMTWPPVLDSDGSFFLYSKLTVDKSRWQQGNVFSCSVMHEALHNHYTQKSLSLSPGK
heavy 2: EVQLVESGGGLVQPGRSLRLSCTASGFTFSYFWMNWVRQAPGKGLEWVGEIRLRSDNYATHYAESVKGRFTISRDDSKSIAYLQMNSLKTEDTALYYCTRDWEFTYWGQGTTVTVSSASTKGPSVFPLAPSSKSTSGGTAALGCLVKDYFPEPVTVSWNSGALTSGVHTFPAVLQSSGLYSLSSVVTVPSSSLGTQTYICNVNHKPSNTKVDKKVEPKSCDKPAPTSSSTKKTQLQLEHLLLDLQMILNGINNYKNPKLTDMLTFEFYMPKKATELKHLQCLERELKPLEEVLNLAQSKNFHLRPRDLISNINVIVLELKGSETTFMCEYADETATIVEFLNRWITFCQSIISTLTDKTHTCPPCPAPEDEGGPSVFLFPPKPKDTLMISRTPEVTCVVVDVSHEDPEVKFNWYVDGVEVHNAKTKPREEQYNSTYRVVSVLTVLHQDWLNGKEYKCKVSNKALPAPIEKTISKAKGQPREPQVYVYPPSREEMTKNQVSLTCLVKGFYPSDIAVEWESNGQPENNYKTTPPVLDEDGSFALVSKLTVDKSRWQQGNVFSCSVMHEALHNHYTQKSLSLSPGK
As for B4, in test [3], the “Percent IL-2 signal transduction (HEK-IL-2 reporter assay)” value amounted to 2.5% and the “Percent T-cell proliferation (PBMC proliferation assay)” value is 45%.
